Measured values: patent publication US20240317847A1 (Bayer, published 2024)

What was measured:
human IL-11 = target: T1, human IL-11 (human, UniProt P20809 22-199); test: Di-complex ELISA, canine IL11RA-hFc binding to immobilized hIL-11, competition
T1 construct: Invigate recombinant protein; biotinylated when immobilized in the Di-complex ELISA; also called hIL11; hIL-11
T1 sequence: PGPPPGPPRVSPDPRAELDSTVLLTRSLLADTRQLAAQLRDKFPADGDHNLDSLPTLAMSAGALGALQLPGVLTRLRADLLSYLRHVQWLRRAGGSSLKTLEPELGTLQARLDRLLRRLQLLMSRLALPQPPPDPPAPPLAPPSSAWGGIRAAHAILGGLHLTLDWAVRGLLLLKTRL
Protocol: In the Di-complex ELISA format anti IL-11 antibodies are tested for the ability to interfere with the formation of complexes consisting of immobilized murine IL-11 (Invigate, e.g., lot #C210819-09) or human IL-11 (Invigate, e.g., lot #C121021-19), and murine IL11RA-Fc fusion proteins or canine IL11RA-human-Fc fusion protein (FIG. 17a, b).
Bispecific antibodies were subjected to the experimental assay procedure described in Example 18 and IC50 [M], respectively efficacy (%) were calculated accordingly.

murine IL-11 = target: T2, murine IL-11 (mouse, UniProt P47873 22-199); test: Di-complex ELISA, competitor canine IL11RA-Fc on coated IL-11;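 for Efficacy (%): signal drop relative to signal at lowest antibody concentration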
T2 construct: Invigate, e.g. lot #C210819-09; biotinylated where coated in the ELISA; also called mIL-11; mIL11
T2 sequence: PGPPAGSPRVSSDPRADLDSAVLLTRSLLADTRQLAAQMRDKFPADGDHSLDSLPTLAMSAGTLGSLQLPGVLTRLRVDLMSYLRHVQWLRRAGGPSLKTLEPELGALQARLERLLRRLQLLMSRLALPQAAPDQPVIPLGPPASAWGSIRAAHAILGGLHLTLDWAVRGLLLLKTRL

[1] = target: T3, human IL-11 (Invigate, e.g., lot #C121021-19) (human, UniProt P20809 22-199); test: SPR, Biacore 8K; antibody captured on anti-human IgG Fc chip, IL-11 analyte 0-50 nM, 1:1 fit
T3 construct: Bought protein; also called hIL-11; hIL11
T3 sequence: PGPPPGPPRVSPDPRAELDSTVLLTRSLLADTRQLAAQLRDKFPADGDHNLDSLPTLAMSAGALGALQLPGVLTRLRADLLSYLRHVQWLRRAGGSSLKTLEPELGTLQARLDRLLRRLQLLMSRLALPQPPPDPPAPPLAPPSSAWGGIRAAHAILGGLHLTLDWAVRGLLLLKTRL

[2] = target: T4, murine IL-11 (Invigate, e.g., lot #C210819-09) (mouse, UniProt P47873 22-199); test: as above
T4 construct: Bought protein; biotinylated where captured on streptavidin plates; also called mIL-11; mIL11
T4 sequence: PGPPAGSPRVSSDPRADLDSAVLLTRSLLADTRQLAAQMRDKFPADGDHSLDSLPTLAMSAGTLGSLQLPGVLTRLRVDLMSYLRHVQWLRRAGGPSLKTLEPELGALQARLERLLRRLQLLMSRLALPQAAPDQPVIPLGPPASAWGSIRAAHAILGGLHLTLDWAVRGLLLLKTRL

B1: TPP-29603 (bispecific antibody, IgG1)
chain 1: QVQLVESGGGVVQPGRSLRLSCAASGFTFSHYDMHWVRQAPGKGLEWVAVISYHGSVKFYADSVKGRFTISRDNSKNTLYLQMNSLRAEDTAVYYCARTPGFHFDYWGQGTLVTVSSGGGGSGGGGSGGGGSQSVLTQPPSASGTPGQRVTISCSGSSSNIGSNYVSWYQQLPGTAPKLLIYYDDLRPSGVPDRFSGSKSGTSASLAISGLRSEDEADYYCSAWDDSLSGVVFGGGTKLTVLGGGGSGGGGSGGGGSGVECPPCPAPPVAGPSVFIFPPKPKDVLTITLTPKVTCVVVDISKDDPEVQFSWFVDDVEVHTAQTQPREEQFNSTFRSVSELPIMHQDWLNGKEFKCRVNSAAFPAPIEKTISKTKGRPKAPQVYTIPPCKEQMAKDKVSLWCMITDFFPEDITVEWQWNGQPAENYKNTQPIMDTDGSYFVYSKLNVQKSNWEAGNTFTCSVLHEGLHNHHTEKSLSHSPGK
chain 2: EVQLLESGGGLVQPGGSLRLSCAASGFTFSSYGMHWVRQAPGKGLEWVAVISYDGSYKYYADSVKGRFTISRDNSKNTLYLQMNSLRAEDTAVYYCAAGVPDYWGQGTLVTVSSGGGGSGGGGSGGGGSQSVLTQPPSASGTPGQRVTISCSGSSSNIGSDYDVHWYQQLPGTAPKLLIYSNEERPSGVPDRFSGSKSGTSASLAISGLRSEDEADYYCSAWDSSLSGPVFGGGTKLTVLGGGGSGGGGSGGGGSGVECPPCPAPPVAGPSVFIFPPKPKDVLTITLTPKVTCVVVDISKDDPEVQFSWFVDDVEVHTAQTQPREEQFNSTFRSVSELPIMHQDWLNGKEFKCRVNSAAFPAPIEKTISKTKGRPKAPQVCTIPPPKEQMAKDKVSLSCAITDFFPEDITVEWQWNGQPAENYKNTQPIMDTDGSYFVVSKLNVQKSNWEAGNTFTCSVLHEGLHNHHTEKSLSHSPGK
notes: scFv-kih-mIgG1; bispecific comprising CDRs of TPP-29528 and TPP-29519
- IC50 (human IL-11): 1.7 nM

B2: TPP-18068 (antibody, mouse IgG1)
heavy: EVQLLESGGGLVQPGGSLRLSCAASGFTFSSYGMHWVRQAPGKGLEWVSVISYDGSYKYYADSVKGRFTISRDNSKNTLYLQMNSLRAEDTAVYYCAAGVPDYWGQGTLVTVSSAKTTPPSVYPLAPGSAAQTNSMVTLGCLVKGYFPEPVTVTWNSGSLSSGVHTFPAVLQSDLYTLSSSVTVPSSTWPSETVTCNVAHPASSTKVDKKIVPRDCGCKPCICTVPEVSSVFIFPPKPKDVLTITLTPKVTCVVVDISKDDPEVQFSWFVDDVEVHTAQTQPREEQFNSTFRSVSELPIMHQDWLNGKEFKCRVNSAAFPAPIEKTISKTKGRPKAPQVYTIPPPKEQMAKDKVSLTCMITDFFPEDITVEWQWNGQPAENYKNTQPIMDTDGSYFVYSKLNVQKSNWEAGNTFTCSVLHEGLHNHHTEKSLSHSPGK
light: QSVLTQPPSASGTPGQRVTISCTGSSSNIGAGYDVHWYQQLPGTAPKLLIYSNNERPSGVPDRFSGSKSGTSASLAISGLRSEDEADYYCAAWDDSLNGPVFGGGTKLTVLGQPKSSPSVTLFPPSSEELETNKATLVCTITDFYPGVVTVDWKVDGTPVTQGMETTQPSKQSNNKYMASSYLTLTARAWERHSSYSCQVTHEGHTVEKSLSRADCS
notes: mIgG1, Lambda
- Efficacy (%) (murine IL-11): 64.2%
- IC50 (murine IL-11): 2.9 nM

B3: TPP-18087 (antibody, mouse IgG1, V domains shown)
VH: EVQLLESGGGLVQPGGSLRLSCAASGFTFSHYDMNWLRQAPGKGLEWVGVISYDGSNKFYADFVKGRFTISRDNSKNTLYLQMNSLRAEDTAVYYCARTPGSHFDYWGQGTLVTVSS
VL: QSVLTQPPSASGTPGQRVTISCSGSSSNIGNNAVNWYQQLPGTAPKLLIYYDDLLPSGVPDRFSGSKSGTSASLAISGLRSEDEADYYCSAWDDSLNGVVFGGGTKLTVLG
notes: mIgG1, Lambda
- Kd [1]: 5.2 nM
- Kd [2]: 12 nM
